Measurements taken from patent US20180346544A1.

Target: CD276.MG.BB.z CAR (SEQ ID NO: 12)
Test: flow cytometry, Protein L staining of T cells cultured with CD276.MG.BB.z vector supernatant; the mock-transduced panel gives 2.56

CD276.MG.BB.z CAR (SEQ ID NO: 12), sequence (chain, as listed by the source, form in doubt): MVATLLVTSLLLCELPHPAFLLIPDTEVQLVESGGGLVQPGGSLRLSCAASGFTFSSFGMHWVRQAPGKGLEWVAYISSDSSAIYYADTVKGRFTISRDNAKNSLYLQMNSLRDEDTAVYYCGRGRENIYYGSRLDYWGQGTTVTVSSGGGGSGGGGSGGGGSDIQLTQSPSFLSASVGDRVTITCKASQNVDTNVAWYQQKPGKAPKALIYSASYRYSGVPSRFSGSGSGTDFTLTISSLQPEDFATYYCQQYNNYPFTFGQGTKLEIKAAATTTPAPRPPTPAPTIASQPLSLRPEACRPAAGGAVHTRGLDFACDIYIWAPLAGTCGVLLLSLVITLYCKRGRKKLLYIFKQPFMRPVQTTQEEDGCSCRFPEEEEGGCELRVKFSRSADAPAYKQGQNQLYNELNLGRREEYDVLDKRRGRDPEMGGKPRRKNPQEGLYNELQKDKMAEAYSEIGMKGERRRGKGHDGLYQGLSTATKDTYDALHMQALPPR

value of the horizontal bar in the flow cytometric histogram (Protein L staining): 54.7
Substance: Protein L
